In this test the target is heparan sulfate proteoglycan (HSPG) on HeLa cells. Kind of test: cell-based or functional assay.

B1: CT-59 (antibody, part only; not given: TMab4 heavy chain variable domain, V domains shown, part only)
VL: DIQMTQSPSSLSASVGDRVTITCKSSQSLLNSRDGKNYLAWYQQKPGKAPKLLIYWASTRESGVPSRFSGSGSGTDFTLTISSLQPEDFATYFCQQYWYWMYTFGQGTKVEIKR
Take B1: the Alexa488 fluorescence intensity in HeLa cells (confocal microscopy, 1 µM, 6 h) turned out to be 20%.
